In experiment [1] the target is T1, biotinylated recombinant human TNFα (human, UniProt P01375 77-233, biotinylated (D-biotinyl-ε-aminocaproic acid N-hydroxysuccinimide ester, 2:1 molar ratio of biotin to rhTNFα)).
T1 construct: mature; Immobilized via streptavidin on the BIAcore chip; also called biotinylated rhTNFα; biotinylated rhTNF
Description: SPR (BIAcore), biotinylated rhTNFα, scFv. For orientation: Surface plasmon resonance follows binding to a sensor surface in real time, without labels.
Description: Before injection of the protein and immediately afterward, PBS buffer alone flowed through each flow cell. […] Antibodies (20 μg/ml) were diluted in PBS running buffer and 25 μl aliquots were injected through the immobilized protein matrices at a flow rate of 5 μl/min. Prior to injection of antibody, and immediately afterwards, PBS buffer alone flowed through each flow cell. The net difference in baseline signal and signal after completion of antibody injection was taken to represent the binding value of the particular sample. Biosensor matrices were regenerated using 100 mM HCI before injection of the next sample. To determine the off rate (Koff), on rate (Kₒₙ), association rate (Kₐ) and dissociation rate (Kd) constants, BIAcore kinetic evaluation software (version 2.1) was used.

A further experiment addresses recombinant human TNFα (human, UniProt P01375 77-233, The active form is a noncovalent homotrimer; one protomer is given.). Description: cell-based or functional assay.

T1 sequence (P01375 77-233 limits assumed): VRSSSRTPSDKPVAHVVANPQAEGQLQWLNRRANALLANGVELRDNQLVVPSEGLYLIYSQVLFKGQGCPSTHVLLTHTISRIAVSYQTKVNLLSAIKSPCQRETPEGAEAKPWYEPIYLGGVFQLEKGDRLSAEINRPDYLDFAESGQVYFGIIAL
Sequence of recombinant human TNFα (P01375 77-233 limits assumed): as above

B1: 2SD4 VH/EP B12 scFv (scFv, V domains shown)
VH: QVQLVESGGGLVQPGRSLRLSCAASGFTFDDYAMHWVRQAPGKGLDWVSAITWNSGHIDYADSVEGRFAVSRDNAKNALYLQMNSLRPEDTAVYYCTKASYLSTSSSLDNWGQGTLVTVSS
VL: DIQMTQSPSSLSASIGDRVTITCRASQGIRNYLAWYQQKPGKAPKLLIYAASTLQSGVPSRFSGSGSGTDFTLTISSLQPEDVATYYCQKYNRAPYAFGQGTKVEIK
notes: scFv
The term koff denotes a measure of how fast the partners let go of each other. As for B1, the koff in experiment [1] came out at 0.0067 s⁻¹.

B2: 2SD4/2SD4 (format printed as scFv/IgG1/IgG4) (antibody, V domains shown)
VH: QVQLVESGGGLVQPGRSLRLSCAASGFTFDDYAMHWVRQAPGKGLDWVSAITWNSGHIDYADSVEGRFAVSRDNAKNALYLQMNSLRPEDTAVYYCTKASYLSTSSSLDNWGQGTLVTVSS
VL: DIQMTQSPSSLSASIGDRVTITCRASQGIRNYLAWYQQKPGKAPKLLIYAASTLQSGVPSRFSGSGSGTDFTLTISSLQPEDVATYYCQKYNSAPYAFGQGTKVEIK
As for B2, in the experiment with recombinant human TNFα, the “IC50, neutralization of TNFα-induced L929 cytotoxicity” value turned out to be 300 nM.

B3: VH1-D2/LOE7 scFv (scFv, V domains shown)
VH: QVQLVESGGGLVQPGRSLRLSCAASGFTFDDYAMHWVRQAPGKGLDWVSAITWNSGHIDYADSVEGRFAVSRDNAKNALYLQMNSLRPEDTAVYYCAKVSYLSTASSLDYWGQGTLVTVSS
VL: not shown
notes: scFv; not shown: the scFv linker and the order of the domains
On to B3, for which, in experiment [1], the koff was determined as 0.00046 s⁻¹.

B4: 2SD4 VH/VL10E4 scFv (scFv, V domains shown)
VH: QVQLVESGGGLVQPGRSLRLSCAASGFTFDDYAMHWVRQAPGKGLDWVSAITWNSGHIDYADSVEGRFAVSRDNAKNALYLQMNSLRPEDTAVYYCTKASYLSTSSSLDNWGQGTLVTVSS
VL: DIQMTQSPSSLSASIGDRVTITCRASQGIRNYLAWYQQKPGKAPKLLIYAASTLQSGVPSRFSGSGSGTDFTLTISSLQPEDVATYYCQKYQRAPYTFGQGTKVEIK
notes: scFv
With B4, the koff in experiment [1] came to 0.0096 s⁻¹.

B5: 2SD4 VH/VL1B7 scFv (scFv, V domains shown)
VH: QVQLVESGGGLVQPGRSLRLSCAASGFTFDDYAMHWVRQAPGKGLDWVSAITWNSGHIDYADSVEGRFAVSRDNAKNALYLQMNSLRPEDTAVYYCTKASYLSTSSSLDNWGQGTLVTVSS
VL: DIQMTQSPSSLSASIGDRVTITCRASQGIRNYLAWYQQKPGKAPKLLIYAASTLQSGVPSRFSGSGSGTDFTLTISSLQPEDVATYYCQQYNSAPDTWGQGTKVEIK
notes: scFv
Turning to B5, in experiment [1], the koff is 0.013 s⁻¹.

B6: 2SD4 VH/VL100A9 scFv (scFv, V domains shown)
VH: QVQLVESGGGLVQPGRSLRLSCAASGFTFDDYAMHWVRQAPGKGLDWVSAITWNSGHIDYADSVEGRFAVSRDNAKNALYLQMNSLRPEDTAVYYCTKASYLSTSSSLDNWGQGTLVTVSS
VL: DIQMTQSPSSLSASIGDRVTITCRASQGIRNYLAWYQQKPGKAPKLLIYAASTLQSGVPSRFSGSGSGTDFTLTISSLQPEDVATYYCQKYSSAPYTFGQGTKVEIK
notes: scFv
With B6, the koff in experiment [1] stood at 0.0133 s⁻¹.

B7: VH1D8/2SD4 VL scFv (scFv, V domains shown)
VH: QVQLVESGGGLVQPGRSLRLSCAASGFTFDDYAMHWVRQAPGKGLDWVSAITWNSGHIDYADSVEGRFAVSRDNAKNALYLQMNSLRPEDTAVYYCARASYLSTSSSLDYWGQGTLVTVSS
VL: DIQMTQSPSSLSASIGDRVTITCRASQGIRNYLAWYQQKPGKAPKLLIYAASTLQSGVPSRFSGSGSGTDFTLTISSLQPEDVATYYCQKYNSAPYAFGQGTKVEIK
notes: scFv
With B7, the koff in experiment [1] stood at 0.0095 s⁻¹.

B8: 2SD4 VH/VL0.1F4 scFv (scFv, V domains shown)
VH: QVQLVESGGGLVQPGRSLRLSCAASGFTFDDYAMHWVRQAPGKGLDWVSAITWNSGHIDYADSVEGRFAVSRDNAKNALYLQMNSLRPEDTAVYYCTKASYLSTSSSLDNWGQGTLVTVSS
VL: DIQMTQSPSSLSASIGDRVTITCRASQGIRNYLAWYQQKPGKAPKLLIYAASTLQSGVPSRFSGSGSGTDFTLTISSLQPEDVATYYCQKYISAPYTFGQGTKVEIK
notes: scFv
For the molecule B8, the koff in experiment [1] is 0.0176 s⁻¹.

B9: VH1A11/2SD4 VL scFv (scFv, V domains shown)
VH: QVQLVESGGGLVQPGRSLRLSCAASGFTFDDYAMHWVRQAPGKGLDWVSAITWNSGHIDYADSVEGRFAVSRDNAKNALYLQMNSLRPEDTAVYYCTKASYLSTSSSLDDWGQGTLVTVSS
VL: DIQMTQSPSSLSASIGDRVTITCRASQGIRNYLAWYQQKPGKAPKLLIYAASTLQSGVPSRFSGSGSGTDFTLTISSLQPEDVATYYCQKYNSAPYAFGQGTKVEIK
notes: scFv
As for B9, in experiment [1], the koff came to 0.0134 s⁻¹.

B10: 2SD4 VH/VLLOG7 scFv (scFv, V domains shown)
VH: QVQLVESGGGLVQPGRSLRLSCAASGFTFDDYAMHWVRQAPGKGLDWVSAITWNSGHIDYADSVEGRFAVSRDNAKNALYLQMNSLRPEDTAVYYCTKASYLSTSSSLDNWGQGTLVTVSS
VL: DIQMTQSPSSLSASIGDRVTITCRASQGIRNYLAWYQQKPGKAPKLLIYAASTLQSGVPSRFSGSGSGTDFTLTISSLQPEDVATYYCQKYNSAPYNFGQGTKVEIK
notes: scFv
For B10, the koff in experiment [1] turned out to be 0.0156 s⁻¹.

B11: VH1B11/2SD4 VL scFv (scFv, V domains shown)
VH: QVQLVESGGGLVQPGRSLRLSCAASGFTFDDYAMHWVRQAPGKGLDWVSAITWNSGHIDYADSVEGRFAVSRDNAKNALYLQMNSLRPEDTAVYYCTKASYLSTSSSLDKWGQGTLVTVSS
VL: DIQMTQSPSSLSASIGDRVTITCRASQGIRNYLAWYQQKPGKAPKLLIYAASTLQSGVPSRFSGSGSGTDFTLTISSLQPEDVATYYCQKYNSAPYAFGQGTKVEIK
notes: scFv
In the case of B11, the koff in experiment [1] came out at 0.0098 s⁻¹.

B12: VH1G1/2SD4 VL scFv (scFv, V domains shown)
VH: QVQLVESGGGLVQPGRSLRLSCAASGFTFDDYAMHWVRQAPGKGLDWVSAITWNSGHIDYADSVEGRFAVSRDNAKNALYLQMNSLRPEDTAAYYCAKASYLSTSSSLDYWGQGTLVTVSS
VL: DIQMTQSPSSLSASIGDRVTITCRASQGIRNYLAWYQQKPGKAPKLLIYAASTLQSGVPSRFSGSGSGTDFTLTISSLQPEDVATYYCQKYNSAPYAFGQGTKVEIK
notes: scFv
Consider B12, for which the dissociation rate constant (koff) in experiment [1] is 0.0214 s⁻¹.

B13: 2SD4 VH/VLLOH1 scFv (scFv, V domains shown)
VH: QVQLVESGGGLVQPGRSLRLSCAASGFTFDDYAMHWVRQAPGKGLDWVSAITWNSGHIDYADSVEGRFAVSRDNAKNALYLQMNSLRPEDTAVYYCTKASYLSTSSSLDNWGQGTLVTVSS
VL: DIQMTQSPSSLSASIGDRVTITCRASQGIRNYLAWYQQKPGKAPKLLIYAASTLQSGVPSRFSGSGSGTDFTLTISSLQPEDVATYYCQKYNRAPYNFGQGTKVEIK
notes: scFv
B13: the koff in experiment [1] was 0.0117 s⁻¹.

B14: 2SD4 VH/VL0.1H8 scFv (scFv, V domains shown)
VH: QVQLVESGGGLVQPGRSLRLSCAASGFTFDDYAMHWVRQAPGKGLDWVSAITWNSGHIDYADSVEGRFAVSRDNAKNALYLQMNSLRPEDTAVYYCTKASYLSTSSSLDNWGQGTLVTVSS
VL: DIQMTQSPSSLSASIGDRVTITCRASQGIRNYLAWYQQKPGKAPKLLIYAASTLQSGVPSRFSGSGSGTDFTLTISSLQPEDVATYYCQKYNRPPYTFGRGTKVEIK
notes: scFv
As for B14, the koff in experiment [1] worked out at 0.0114 s⁻¹.

B15: 2SD4 VH/VLLOH10 scFv (scFv, V domains shown)
VH: QVQLVESGGGLVQPGRSLRLSCAASGFTFDDYAMHWVRQAPGKGLDWVSAITWNSGHIDYADSVEGRFAVSRDNAKNALYLQMNSLRPEDTAVYYCTKASYLSTSSSLDNWGQGTLVTVSS
VL: DIQMTQSPSSLSASIGDRVTITCRASQGIRNYLAWYQQKPGKAPKLLIYAASTLQSGVPSRFSGSGSGTDFTLTISSLQPEDVATYYCQKYNSAAYSFGQGTKVEIK
notes: scFv
On to B15, for which the koff in experiment [1] was 0.0112 s⁻¹.

B16: 2SD4 VH/VLL0F10 scFv (scFv, V domains shown)
VH: QVQLVESGGGLVQPGRSLRLSCAASGFTFDDYAMHWVRQAPGKGLDWVSAITWNSGHIDYADSVEGRFAVSRDNAKNALYLQMNSLRPEDTAVYYCTKASYLSTSSSLDNWGQGTLVTVSS
VL: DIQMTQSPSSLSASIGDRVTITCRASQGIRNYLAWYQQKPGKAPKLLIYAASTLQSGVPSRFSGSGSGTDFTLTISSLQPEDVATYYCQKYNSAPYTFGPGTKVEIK
notes: scFv
Consider B16, for which, in experiment [1], the koff was found to be 0.0134 s⁻¹.

B17: 2SD4 VH/VL1C7 scFv (scFv, V domains shown)
VH: QVQLVESGGGLVQPGRSLRLSCAASGFTFDDYAMHWVRQAPGKGLDWVSAITWNSGHIDYADSVEGRFAVSRDNAKNALYLQMNSLRPEDTAVYYCTKASYLSTSSSLDNWGQGTLVTVSS
VL: DIQMTQSPSSLSASIGDRVTITCRASQGIRNYLAWYQQKPGKAPKLLIYAASTLQSGVPSRFSGSGSGTDFTLTISSLQPEDVATYYCQKYNSAPYNFGQGTKVEIK
notes: scFv
Consider B17, for which the koff in experiment [1] was determined as 0.02 s⁻¹.

B18: VH1B12/2SD4 VL scFv (scFv, V domains shown)
VH: QVQLVESGGGLVQPGRSLRLSCAASGFTFDDYAMHWVRQAPGKGLDWVSAITWNSGHIDYADSVEGRFAVSRDNAKNALYLQMNSLRPEDTAVYYCAKASYLSTSFSLDYWGQGTLVTVSS
VL: DIQMTQSPSSLSASIGDRVTITCRASQGIRNYLAWYQQKPGKAPKLLIYAASTLQSGVPSRFSGSGSGTDFTLTISSLQPEDVATYYCQKYNSAPYAFGQGTKVEIK
notes: scFv
B18: the koff in experiment [1] stood at 0.0101 s⁻¹.

B19: 2SD4 VH/VL1C1 scFv (scFv, V domains shown)
VH: QVQLVESGGGLVQPGRSLRLSCAASGFTFDDYAMHWVRQAPGKGLDWVSAITWNSGHIDYADSVEGRFAVSRDNAKNALYLQMNSLRPEDTAVYYCTKASYLSTSSSLDNWGQGTLVTVSS
VL: DIQMTQSPSSLSASIGDRVTITCRASQGIRNYLAWYQQKPGKAPKLLIYAASTLQSGVPSRFSGSGSGTDFTLTISSLQPEDVATYYCQKYNSDPYTFGQGTKVEIK
notes: scFv
For B19, the koff in experiment [1] came to 0.0136 s⁻¹.

B20: 2SD4 VH/VL10F4 scFv (scFv, V domains shown)
VH: QVQLVESGGGLVQPGRSLRLSCAASGFTFDDYAMHWVRQAPGKGLDWVSAITWNSGHIDYADSVEGRFAVSRDNAKNALYLQMNSLRPEDTAVYYCTKASYLSTSSSLDNWGQGTLVTVSS
VL: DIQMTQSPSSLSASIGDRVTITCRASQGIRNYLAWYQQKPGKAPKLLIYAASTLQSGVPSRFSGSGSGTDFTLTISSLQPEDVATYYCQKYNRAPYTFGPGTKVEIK
notes: scFv
Turning to B20, the koff in experiment [1] is 0.0111 s⁻¹.

B21: VH1E4/2SD4 VL scFv (scFv, V domains shown)
VH: QVQLVESGGGLVQPGRSLRLSCAASGFTFDDYAMHWVRQAPGKGLDWVSAITWNSGHIDYADSVEGRFAVSRDNAKNALYLQMNSLRPEDTAVYYCAKASYLSTSSSLHYWGQGTLVTVSS
VL: DIQMTQSPSSLSASIGDRVTITCRASQGIRNYLAWYQQKPGKAPKLLIYAASTLQSGVPSRFSGSGSGTDFTLTISSLQPEDVATYYCQKYNSAPYAFGQGTKVEIK
notes: scFv
As for B21, in experiment [1], the koff stood at 0.0159 s⁻¹.

B22: VH1F6/2SD4 VL scFv (scFv, V domains shown)
VH: QVQLVESGGGLVQPGRSLRLSCAASGFTFDDYAMHWVRQAPGKGLDWVSAITWNSGHIDYADSVEGRFAVSRDNAKNALYLQMNSLRPEDTAVYYCAKASFLSTSSSLEYWGQGTLVTVSS
VL: DIQMTQSPSSLSASIGDRVTITCRASQGIRNYLAWYQQKPGKAPKLLIYAASTLQSGVPSRFSGSGSGTDFTLTISSLQPEDVATYYCQKYNSAPYAFGQGTKVEIK
notes: scFv
As to B22, the off-rate constant (koff) in experiment [1] was 0.0229 s⁻¹.

B23: 2SD4 VH/VLLOG9 scFv (scFv, V domains shown)
VH: QVQLVESGGGLVQPGRSLRLSCAASGFTFDDYAMHWVRQAPGKGLDWVSAITWNSGHIDYADSVEGRFAVSRDNAKNALYLQMNSLRPEDTAVYYCTKASYLSTSSSLDNWGQGTLVTVSS
VL: DIQMTQSPSSLSASIGDRVTITCRASQGIRNYLAWYQQKPGKAPKLLIYAASTLQSGVPSRFSGSGSGTDFTLTISSLQPEDVATYYCQKYTSAPYTFGQGTKVEIK
notes: scFv
B23: the koff in experiment [1] was 0.0146 s⁻¹.

B24: 2SD4 VH/VL100D2 scFv (scFv, V domains shown)
VH: QVQLVESGGGLVQPGRSLRLSCAASGFTFDDYAMHWVRQAPGKGLDWVSAITWNSGHIDYADSVEGRFAVSRDNAKNALYLQMNSLRPEDTAVYYCTKASYLSTSSSLDNWGQGTLVTVSS
VL: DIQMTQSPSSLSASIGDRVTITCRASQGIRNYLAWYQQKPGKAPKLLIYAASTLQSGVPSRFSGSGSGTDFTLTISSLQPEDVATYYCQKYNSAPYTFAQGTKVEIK
notes: scFv
Take B24: in experiment [1], the koff came to 0.0141 s⁻¹.

For the origin of these results see US20070249813A1 (AbbVie / Abbott, published 2007).
